Results from the supplement of paper PMC5998384.

How the values were obtained:
HeLa Kyoto [1] = experiment: solubility in G1/S (NP-40 vs SDS abundance) (log2 ratio); higher = more soluble; details: cell cycle stage: G1/S
HeLa Kyoto [2] = experiment: melting temperature (median over replicates), in situ; higher = more thermally stable
HeLa Kyoto [3] = experiment: solubility change mitosis vs G1/S (difference of NP-40 vs SDS log2 ratios) (log2 ratio difference); higher = more soluble in mitosis
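Throughout, for melting temperature (median over replicates), in situ: HeLa Kyoto cells synchronized by double thymidine or nocodazole block, proteins quantified by TMT10plex mass spectrometry, three independent biological replicates.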
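Throughout, for solubility change mitosis vs G1/S (difference of NP-40 vs SDS log2 ratios): synchronized HeLa Kyoto cells (double thymidine block for G1/S, nocodazole release for mitosis), protein amounts in NP-40 versus SDS lysates quantified by mass spectrometry, three biological replicates.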
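Throughout, for solubility in G1/S (NP-40 vs SDS abundance): HeLa Kyoto cells arrested at G1/S by double thymidine block, proteins quantified by TMT10plex mass spectrometry in mild NP-40 versus SDS extracts, three biological replicates.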

Substance	solubility in G1/S (log2) (HeLa Kyoto [1])	melting temperature (HeLa Kyoto [2]; cell cycle stage: G1/S)	melting temperature (HeLa Kyoto [2]; cell cycle stage: mitosis)	solubility change mitosis (log2) (HeLa Kyoto [3])
MVPGSEGPARAGSVVADVVFVIEGTANLGPYFEGLRKHYLLPAIEYFNGGPPAETDFGGDYGGTQYSLVVFNTVDCAPESYVQCHAPTSSAYEFVTWLDGIKFMGGGGESCSLIAEGLSTALQLFDDFKKMREQIGQTHRVCLLICNSPPYLLPAVESTTYSGCTTENLVQQIGERGIHFSIVSPRKLPALRLLFEKAAPPALLEPLQPPTDVSQDPRHMVLVRGLVLPVGGGSAPGPLQSKQPVPLPPAAPSGATLSAAPQQPLPPVPPQYQVPGNLSAAQVAAQNAVEAAKNQKAGLGPRFSPITPLQQAAPGVGPPFSQAPAPQLPPGPPGAPKPPPASQPSLVSTVAPGSGLAPTAQPGAPSMAGTVAPGGVSGPSPAQLGAPALGGQQSVSNKLLAWSGVLEWQEKPKPASVDANTKLTRSLPCQVYVNHGENLKTEQWPQKLIMQLIPQQLLTTLGPLFRNSRMVQFHFTNKDLESLKGLYRIMGNGFAGCVHFPHTAPCEVRVLMLLYSSKKKIFMGLIPYDQSGFVNGIRQVITNHKQVQQQKLEQQQRGMGGQQAPPGLGPILEDQARPSQNLLQLRPPQPQPQGTVGASGATGQPQPQGTAQPPPGAPQGPPGAASGPPPPGPILRPQNPGANPQLRSLLLNPPPPQTGVPPPQASLHHLQPPGAPALLPPPHQGLGQPQLGPPLLHPPPAQSWPAQLPPRAPLPGQMLLSGGPRGPVPQPGLQPSVMEDDILMDLI [MED25]	0.612	52.1 °C	50.9 °C	-0.172
MTDRYTIHSQLEHLQSKYIGTGHADTTKWEWLVNQHRDSYCSYMGHFDLLNYFAIAENESKARVRFNLMEKMLQPCGPPADKPEEN [SF3B5]	-0.73	52.7 °C	51.1 °C	0.221
KANSL3	0.155		48.6 °C	0.061
PTPRS	0.148	51.6 °C		-0.268
MVTEQEVDAIGQTLVDPKQPLQARFRALFTLRGLGGPGAIAWISQAFDDDSALLKHELAYCLGQMQDARAIPMLVDVLQDTRQEPMVRHEAGEALGAIGDPEVLEILKQYSSDPVIEVAETCQLAVRRLEWLQQHGGEPAAGPYLSVDPAPPAEERDVGRLREALLDESRPLFERYRAMFALRNAGGEEAALALAEGLHCGSALFRHEVGYVLGQLQHEAAVPQLAAALARCTENPMVRHECAEALGAIARPACLAALQAHADDPERVVRESCEVALDMYEHETGRAFQYADGLEQLRGAPS [DOHH]	0.137	50.3 °C	50.6 °C	0.308
MAQETNHSQVPMLCSTGCGFYGNPRTNGMCSVCYKEHLQRQNSSNGRISPPATSVSSLSESLPVQCTDGSVPEAQSALDSTSSSMQPSPVSNQSLLSESVASSQLDSTSVDKAVPETEDVQASVSDTAQQPSEEQSKSLEKPKQKKNRCFMCRKKVGLTGFECRCGNVYCGVHRYSDVHNCSYNYKADAAEKIRKENPVVVGEKIQKI [ZFAND6]	0.396	56.7 °C		-0.182
MKDRLEQLKAKQLTQDDDTDAVEIAIDNTAFMDEFFSEIEETRLNIDKISEHVEEAKKLYSIILSAPIPEPKTKDDLEQLTTEIKKRANNVRNKLKSMEKHIEEDEVRSSADLRIRKSQHSVLSRKFVEVMTKYNEAQVDFRERSKGRIQRQLEITGKKTTDEELEEMLESGNPAIFTSGIIDSQISKQALSEIEGRHKDIVRLESSIKELHDMFMDIAMLVENQGEMLDNIELNVMHTVDHVEKARDETKKAVKYQSQARKKLIIIIVLVVVLLGILALIIGLSVGLN [STX3]	0.157	53.9 °C		0.0981
MGKEKTHINIVVIGHVDSGKSTTTGHLIYKCGGIDKRTIEKFEKEAAEMGKGSFKYAWVLDKLKAERERGITIDISLWKFETSKYYVTIIDAPGHRDFIKNMITGTSQADCAVLIVAAGVGEFEAGISKNGQTREHALLAYTLGVKQLIVGVNKMDSTEPPYSQKRYEEIVKEVSTYIKKIGYNPDTVAFVPISGWNGDNMLEPSANMPWFKGWKVTRKDGNASGTTLLEALDCILPPTRPTDKPLRLPLQDVYKIGGIGTVPVGRVETGVLKPGMVVTFAPVNVTTEVKSVEMHHEALSEALPGDNVGFKVKNVSVKDVRRGNVAGDSKNDPPMEAAGFTAQVIILNHPGQISAGYAPVLDCHMAHIACKFAELKEKIDRRSGKKLEDGPKFLKSGDAAIVDMVPGKPMCVESFSDYPPLGRFAVRDMRQTVAVGVIKAVDKKAAGAGKVTKSAQKAQKAK [EEF1A1P5]	0.301	52.4 °C	52.4 °C	-0.0239
MENFRKVRSEEAPAGCGAEGGGPGSGPFADLAPGAVHMRVKEGSKIRNLMAFATASMAQPATRAIVFSGCGRATTKTVTCAEILKRRLAGLHQVTRLRYRSVREVWQSLPPGPTQGQTPGEPAASLSVLKNVPGLAILLSKDALDPRQPGYQPPNPHPGPSSPPAAPASKRSLGEPAAGEGSAKRSQPEPGVADEDQTA [RPP25]	0.179	54.5 °C	53.7 °C	0.258
MSQSRHRAEAPPLEREDSGTFSLGKMITAKPGKTPIQVLHEYGMKTKNIPVYECERSDVQIHVPTFTFRVTVGDITCTGEGTSKKLAKHRAAEAAINILKANASICFAVPDPLMPDPSKQPKNQLNPIGSLQELAIHHGWRLPEYTLSQEGGPAHKREYTTICRLESFMETGKGASKKQAKRNAAEKFLAKFSNISPENHISLTNVVGHSLGCTWHSLRNSPGEKINLLKRSLLSIPNTDYIQLLSEIAKEQGFNITYLDIDELSANGQYQCLAELSTSPITVCHGSGISCGNAQSDAAHNALQYLKIIAERK [PRKRA]	0.0756	50.1 °C	50 °C	0.0942
MNRLPDDYDPYAVEEPSDEEPALSSSEDEVDVLLHGTPDQKRKLIRECLTGESESSSEDEFEKEMEAELNSTMKTMEDKLSSLGTGSSSGNGKVATAPTRYYDDIYFDSDSEDEDRAVQVTKKKKKKQHKIPTNDELLYDPEKDNRDQAWVDAQRRGYHGLGPQRSRQQQPVPNSDAVLNCPACMTTLCLDCQRHESYKTQYRAMFVMNCSINKEEVLRYKASENRKKRRVHKKMRSNREDAAEKAETDVEEIYHPVMCTECSTEVAVYDKDEVFHFFNVLASHS [EAPP]	0.159	50.3 °C		0.14
MAEAGTGEPSPSVEGEHGTEYDTLPSDTVSLSDSDSDLSLPGGAEVEALSPMGLPGEEDSGPDEPPSPPSGLLPATVQPFHLRGMSSTFSQRSRDIFDCLEGAARRAPSSVAHTSMSDNGGFKRPLAPSGRSPVEGLGRAHRSPASPRVPPVPDYVAHPERWTKYSLEDVTEVSEQSNQATALAFLGSQSLAAPTDCVSSFNQDPSSCGEGRVIFTKPVRGVEARHERKRVLGKVGEPGRGGLGNPATDRGEGPVELAHLAGPGSPEAEEWGSHHGGLQEVEALSGSVHSGSVPGLPPVETVGFHGSRKRSRDHFRNKSSSPEDPGAEV [TSSC4]	0.167	51 °C	50.5 °C	0.0166
MEADSPAGPGAPEPLAEGAAAEFSSLLRRIKGKLFTWNILKTIALGQMLSLCICGTAITSQYLAERYKVNTPMLQSFINYCLLFLIYTVMLAFRSGSDNLLVILKRKWWKYILLGLADVEANYVIVRAYQYTTLTSVQLLDCFGIPVLMALSWFILHARYRVIHFIAVAVCLLGVGTMVGADILAGREDNSGSDVLIGDILVLLGASLYAISNVCEEYIVKKLSRQEFLGMVGLFGTIISGIQLLIVEYKDIASIHWDWKIALLFVAFALCMFCLYSFMPLVIKVTSATSVNLGILTADLYSLFVGLFLFGYKFSGLYILSFTVIMVGFILYCSTPTRTAEPAESSVPPVTSIGIDNLGLKLEENLQETHSAVL [SLC35F2]	0.147		56.1 °C	-0.182
MSRKQNQKDSSGFIFDLQSNTVLAQGGAFENMKEKINAVRAIVPNKSNNEIILVLQHFDNCVDKTVQAFMEGSASEVLKEWTVTGKKKNKKKKNKPKPAAEPSNGIPDSSKSVSIQEEQSAPSSEKGGMNGYHVNGAINDTESVDSLSEGLETLSIDARELEDPESAMLDTLDRTGSMLQNGVSDFETKSLTMHSIHNSQQPRNAAKSLSRPTTETQFSNMGMEDVPLATSKKLSSNIEKSVKDLQRCTVSLARYRVVVKEEMDASIKKMKQAFAELESCLMDREVALLAEMDKVKAEAMEILLSRQKKAELLKKMTHVAVQMSEQQLVELRADIKHFVSERKYDEDLGRVARFTCDVETLKKSIDSFGQVSHPKNSYSTRSRCSSVTSVSLSSPSDASAASSSTCASPPSLTSANKKNFAPGETPAAIANSSGQPYQPLREVLPGNRRGGQGYRPQGQKSNDPMNQGRHDSMGRYRNSSWYSSGSRYQSAPSQAPGNTIERGQTHSAGTNGTGVSMEPSPPTPSFKKGLPQRKPRTSQTEAVNS [SPATS2]	-1.01	52.2 °C	51.5 °C	0.928
MAAATIVHDTSEAVELCPAYGLYLKPITKMTISVALPQLKQPGKSISNWEVMERLKGMVQNHQFSTLRISKSTMDFIRFEGEVENKSLVKSFLACLDGKTIKLSGFSDILKVRAAEFKIDFPTRHDWDSFFRDAKDMNETLPGERPDTIHLEGLPCKWFALKESGSEKPSEDVLVKVFEKFGEIRNVDIPMLDPYREEMTGRNFHTFSFGGHLNFEAYVQYREYMGFIQAMSALRGMKLMYKGEDGKAVACNIKVSFDSTKHLSDASIKKRQLERQKLQELEQQREEQKRREKEAEERQRAEERKQKELEELERERKREEKLRKREQKQRDRELRRNQKKLEKLQAEEQKQLQEKIKLEERKLLLAQRNLQSIRLIAELLSRAKAVKLREQEQKEEKLRLQQQEERRRLQEAELRRVEEEKERALGLQRKERELRERLLSILLSKKPDDSHTHDELGVAHADLLQPVLDILQTVSSGCVSATTLHPLGGQPPAGAPKESPAHPEADGAPKSVNGSVAEEAPCKEVQSSCRVVPEDGSPEKRCPGGVLSCIPDNNQQPKGIPACEQNVSRKDTRSEQDKCNREPSKGRGRATGDGLADRHKRERSRARRASSREDGRPRKERRPHKKHAYKDDSPRRRSTSPDHTRSRRSHSKDRHRRERSRERRGSASRKHSRHRRRSERSRSRSPSRHRSTWNR [AKAP17A]	-1.06	47 °C	49.2 °C	0.521
MEDSGKTFSSEEEEANYWKDLAMTYKQRAENTQEELREFQEGSREYEAELETQLQQIETRNRDLLSENNRLRMELETIKEKFEVQHSEGYRQISALEDDLAQTKAIKDQLQKYIRELEQANDDLERAKRATIMSLEDFEQRLNQAIERNAFLESELDEKENLLESVQRLKDEARDLRQELAVQQKQEKPRTPMPSSVEAERTDTAVQATGSVPSTPIAHRGPSSSLNTPGSFRRGLDDSTGGTPLTPAARISALNIVGDLLRKVGALESKLASCRNLVYDQSPNRTGGPASGRSSKNRDGGERRPSSTSVPLGDKGLDTSCRWLSKSTTRSSSSC [NDE1]	0.236	54.1 °C	53.7 °C	0.568
MRLRVRLLKRTWPLEVPETEPTLGHLRSHLRQSLLCTWGYSSNTRFTITLNYKDPLTGDEETLASYGIVSGDLICLILQDDIPAPNIPSSTDSEHSSLQNNEQPSLATSSNQTSMQDEQPSDSFQGQAAQSGVWNDDSMLGPSQNFEAESIQDNAHMAEGTGFYPSEPMLCSESVEGQVPHSLETLYQSADCSDANDALIVLIHLLMLESGYIPQGTEAKALSMPEKWKLSGVYKLQYMHPLCEGSSATLTCVPLGNLIVVNATLKINNEIRSVKRLQLLPESFICKEKLGENVANIYKDLQKLSRLFKDQLVYPLLAFTRQALNLPDVFGLVVLPLELKLRIFRLLDVRSVLSLSAVCRDLFTASNDPLLWRFLYLRDFRDNTVRVQDTDWKELYRKRHIQRKESPKGRFVMLLPSSTHTIPFYPNPLHPRPFPSSRLPPGIIGGEYDQRPTLPYVGDPISSLIPGPGETPSQFPPLRPRFDPVGPLPGPNPILPGRGGPNDRFPFRPSRGRPTDGRLSFM [FBXO7]	0.02	48.1 °C	49.7 °C	-0.126
